Results taken from patent publication US20260265381A1 (Hoffmann-La Roche, published 2026).

T1: rat RT1 (SEQ ID NO: 43) (rat)
T1 construct: Recombinant single-chain peptide-MHC complex construct (peptide, β2M, MHC class I molecule); also called rat RT1A β2M MHC class I complex
T1 chain: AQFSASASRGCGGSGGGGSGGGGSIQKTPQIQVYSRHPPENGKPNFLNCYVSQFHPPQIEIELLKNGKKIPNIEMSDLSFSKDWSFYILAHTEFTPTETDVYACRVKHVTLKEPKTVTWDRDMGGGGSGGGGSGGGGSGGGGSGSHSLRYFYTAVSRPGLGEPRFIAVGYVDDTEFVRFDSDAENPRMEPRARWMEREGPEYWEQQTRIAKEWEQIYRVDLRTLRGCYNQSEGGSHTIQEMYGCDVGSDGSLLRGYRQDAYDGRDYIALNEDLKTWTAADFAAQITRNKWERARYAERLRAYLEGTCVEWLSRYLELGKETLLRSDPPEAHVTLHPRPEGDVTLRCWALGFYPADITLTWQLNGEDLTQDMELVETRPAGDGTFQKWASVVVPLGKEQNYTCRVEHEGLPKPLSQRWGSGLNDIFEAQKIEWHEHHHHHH

B1: HLA-G-0090 (antibody, IgG1, V domains shown)
VH: QVQLQQSGPGLLKPSQTLSLTCAISGDSVSSNRAAWNWIRQSPSRGLEWLGRTYYRSKWYNDYAVSVQGRITLIPDTSKNQFSLRLNSVTPEDTAVYYCASVRAVAPFDYWGQGVLVTVSS
VL: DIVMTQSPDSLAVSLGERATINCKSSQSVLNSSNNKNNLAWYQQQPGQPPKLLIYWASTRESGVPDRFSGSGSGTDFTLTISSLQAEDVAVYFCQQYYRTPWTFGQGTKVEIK
modifications: N-glycosylation motif NSS in CDR-L1 at light chain positions 31 to 33 (Fab glycosylation detected)
notes: the parental antibody was expressed alongside them; also called parental antibody
B2: HLA-G-0090-VL-S33D (antibody, IgG1, V domains shown)
VH: B1 VH
VL: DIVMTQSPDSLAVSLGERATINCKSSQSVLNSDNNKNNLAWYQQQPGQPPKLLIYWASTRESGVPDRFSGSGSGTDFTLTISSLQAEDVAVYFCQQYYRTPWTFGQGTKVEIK
notes: also called HLA-G-0090-S33D
B3: HLA-G-0090-VL-S32P (antibody, IgG1, V domains shown)
VH: B1 VH
VL: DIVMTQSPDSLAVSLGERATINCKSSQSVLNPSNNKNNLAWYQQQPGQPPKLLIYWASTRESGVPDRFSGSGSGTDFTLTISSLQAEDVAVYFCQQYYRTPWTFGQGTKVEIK
notes: also called HLA-G-0090-S32P
B4: HLA-G-0090-VL-S33A (antibody, IgG1, V domains shown)
VH: B1 VH
VL: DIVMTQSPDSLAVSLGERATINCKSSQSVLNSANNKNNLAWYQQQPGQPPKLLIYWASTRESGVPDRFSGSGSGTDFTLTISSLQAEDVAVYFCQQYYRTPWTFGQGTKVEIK
notes: also called HLA-G-0090-S33A
B5: HLA-G-0090-VL-S33P (antibody, IgG1, V domains shown)
VH: B1 VH
VL: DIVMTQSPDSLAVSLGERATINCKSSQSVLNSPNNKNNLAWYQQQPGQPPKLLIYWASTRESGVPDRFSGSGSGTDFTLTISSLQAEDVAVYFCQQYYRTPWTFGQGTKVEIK
notes: also called HLA-G-0090-S33P
B6: P035-093 (P035) human IgG1 PGLALA (antibody, V domains shown)
VH: EVQLLESGGGLVQPGGSLRLSCAASGFTFSSYAMNWVRQAPGKGLEWVSRIRSKYNNYATYYADSVKGRFTISRDDSKNTLYLQMNSLRAEDTAVYYCVRASNFPASYVSYFAYWGQGTLVTVSS
VL: QAVVTQEPSLTVSPGGTVTLTCGSSTGAVTTSNYANWVQEKPGQAFRGLIGGTNKRAPGTPARFSGSLLGGKAALTLSGAQPEDEAEYYCALWYSNLWVFGGGTKLTVLR
B7: CD3orig human IgG1 PGLALA (antibody, V domains shown)
VH: not shown
VL: B6 VL
notes: Human IgG1 format with P329G L234A L235A mutations in the Fc region

The binders below were run against T2, recombinant single-chain HLA-G monomer/human HLA-G β2M MHC class I complex (human) (assay: SPR single cycle kinetics (Biacore T200, 25 C); antibody captured via Fc on CM3 chip, HLA-G complex as analyte).
T2 construct: also called wt-HLA-G complex; wt-HLA-G antigen

Q: B1 was tested. Which Kd did it give?
A: 1.2 nM

Q: What about the koff of the same binder?
A: 0.00138 s⁻¹

Q: And the kon?
A: 1.19e+06 M⁻¹ s⁻¹

Q: And the t½?
A: 8.35 min

Q: With B2 as the binder, how does the Kd read?
A: 4.8 nM

Q: And the koff?
A: 0.00344 s⁻¹

Q: And the kon?
A: 717000 M⁻¹ s⁻¹

Q: And the t½?
A: 3.36 min

Q: With B3 as the binder, how does the Kd read?
A: 1 nM

Q: What about the koff of the same binder?
A: 0.00124 s⁻¹

Q: What about the kon of the same binder?
A: 1.19e+06 M⁻¹ s⁻¹

Q: What about the t½ of the same binder?
A: 9.29 min

Q: With B4 as the binder, how does the Kd read?
A: 1 nM

Q: And the koff?
A: 0.00124 s⁻¹

Q: What about the kon of the same binder?
A: 1.24e+06 M⁻¹ s⁻¹

Q: What about the t½ of the same binder?
A: 9.3 min

Q: Which results are given for B5?
A: Kd: 1.8 nM; koff: 0.00236 s⁻¹; kon: 1.34e+06 M⁻¹ s⁻¹; t½: 4.91 min

What follows are binders tested against T2, recombinant single-chain HLA-G … (assay: SPR relative active concentration; after 13 days His pH 6.0 at 40 C).

Q: Which “relative HLA-G binding signal compared to Ref (as 100%), by SPR RAC” value does the source give for B1 here?
A: 99%

Q: For B3, which “relative HLA-G binding signal compared to Ref (as 100%), by SPR RAC” value is on record?
A: 99%

Q: Which “relative HLA-G binding signal compared to Ref (as 100%), by SPR RAC” value does the source give for B4 here?
A: 99%

Each binder was assayed against T2, recombinant single-chain HLA-G … (assay: SPR relative active concentration; Ref. (frozen at -80 C)).

Q: Which “relative HLA-G binding signal compared to Ref (as 100%), by SPR RAC” value does the source give for B1 here?
A: 100%

Q: B3 was tested. Which “relative HLA-G binding signal compared to Ref (as 100%), by SPR RAC” value did it give?
A: 100%

Q: For B4, which “relative HLA-G binding signal compared to Ref (as 100%), by SPR RAC” value is on record?
A: 100%

The binders below were run against T2, recombinant single-chain HLA-G … (assay: SPR multi cycle kinetics).

Q: Which “factor of loss of binding affinity compared to HLA-G-0090” value does the source give for B2 here?
A: 5 fold

Q: Which “factor of loss of binding affinity compared to HLA-G-0090” value does the source give for B5 here?
A: 2 fold

The binders below were run against T3, human HLA-G expressed on cells (JEG3 cells, natural; SKOV3 cells transfected with recombinant HLA-G) (human, UniProt P17693 25-338) (assay: flow cytometry on SKOV3 HLA-G cells (SKOV3 transfected with HLA-G); antibody at 2 µg/ml per legend paragraph 51 (10 µg/ml per paragraph 491); detection with goat anti-human IgG (H+L) Alexa 488).
T3 construct: also called SKOV3 HLA-G

Q: With B1 as the binder, how does the MFI read?
A: 13100

Q: For B3, which MFI is on record?
A: 13900

Q: For B4, which MFI is on record?
A: 14300

Target: T1, rat RT1 (SEQ ID NO: 43)
Test: SPR (Biacore T200, 25 C); antibody immobilized on CM3 chip, single-chain peptide-MHC as analyte

Q: Does B1 bind?
A: no binding

Q: Does B3 bind?
A: no binding

Q: Does B4 bind?
A: no binding

What follows are binders tested against T4, human HLA-G β2M MHC class I complex, wherein the HLA-G specific amino acids have been replaced by HLA-A … (human) in the same assay as above.
T4 construct: Recombinant single-chain peptide-MHC complex construct; also called HLA-A consensus on HLA-G frame; degrafted HLA-G

Q: Does B1 bind?
A: no binding

Q: Does B3 bind?
A: no binding

Q: Does B4 bind?
A: no binding

The binders below were run against T5, human CD3 expressed on cells (Jurkat NFAT reporter cells; human T cells isolated from PBMCs) (human, UniProt P07766 23-207) (assay: flow cytometry on Jurkat NFAT cells; IgG1 PGLALA format; detection with PE anti-human IgG Fc F(ab')2).
T5 construct: on cells it is part of the CD3/TCR complex; also called CD3 on Jurkat cells; CD3 expressed on T-cells
T5 sequence (P07766 23-207 limits assumed): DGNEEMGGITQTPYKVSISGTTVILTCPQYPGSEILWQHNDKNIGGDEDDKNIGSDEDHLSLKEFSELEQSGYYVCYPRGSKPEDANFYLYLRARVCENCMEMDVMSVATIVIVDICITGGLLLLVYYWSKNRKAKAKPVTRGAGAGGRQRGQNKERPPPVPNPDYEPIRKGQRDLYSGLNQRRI

Q: Which “EC50 (read off the curve)” value does the source give for B6 here?
A: ~0.5 nM

Q: How did the “EC50 (read off the curve)” value turn out when B7 was run?
A: ~0.8 nM

These binders were tested against T3, human HLA-G expressed on cells (JEG3 …) (assay: flow cytometry; JEG3 cells pre-incubated with antibody, competitor ILT2-c-Myc-Fc at 10 ug/ml).

Q: Which “inhibition of ILT2 binding to Jeg3 cells” value does the source give for B1 here?
A: 72%

Q: How did the “inhibition of ILT2 binding to Jeg3 cells” value turn out when B3 was run?
A: 72%

Q: How did the “inhibition of ILT2 binding to Jeg3 cells” value turn out when B4 was run?
A: 72%

The binders below were run against T2, recombinant single-chain HLA-G … (assay: SPR relative active concentration; after 13 days PBS pH 7.4 at 37 C).

Q: With B1 as the binder, how does the “relative HLA-G binding signal compared to Ref (as 100%), by SPR RAC” value read?
A: 96%

Q: B3 was tested. Which “relative HLA-G binding signal compared to Ref (as 100%), by SPR RAC” value did it give?
A: 98%

Q: For B4, which “relative HLA-G binding signal compared to Ref (as 100%), by SPR RAC” value is on record?
A: 96%

Each binder was assayed against T2, recombinant single-chain HLA-G … (assay: SPR multi cycle kinetics (Biacore T200, 25 C); antibody captured via Fc on CM3 chip, HLA-G complex as analyte).

Q: How did the Kd turn out when B1 was run?
A: 1.4 nM

Q: What about the koff of the same binder?
A: 0.00178 s⁻¹

Q: What about the kon of the same binder?
A: 1.3e+06 M⁻¹ s⁻¹

Q: What about the t½ of the same binder?
A: 6.5 min

Q: Which results are given for B2?
A: Kd: 7.4 nM; koff: 0.00667 s⁻¹; kon: 897000 M⁻¹ s⁻¹; t½: 1.73 min

Q: With B3 as the binder, how does the Kd read?
A: 1.2 nM

Q: What about the koff of the same binder?
A: 0.00157 s⁻¹

Q: What about the kon of the same binder?
A: 1.27e+06 M⁻¹ s⁻¹

Q: And the t½?
A: 7.34 min

Q: B4 was tested. Which Kd did it give?
A: 1.2 nM

Q: And the koff?
A: 0.00149 s⁻¹

Q: And the kon?
A: 1.24e+06 M⁻¹ s⁻¹

Q: And the t½?
A: 7.76 min

Q: With B5 as the binder, how does the Kd read?
A: 2.7 nM

Q: What about the koff of the same binder?
A: 0.00368 s⁻¹

Q: What about the kon of the same binder?
A: 1.36e+06 M⁻¹ s⁻¹

Q: And the t½?
A: 3.13 min

The binders below were run against T3, human HLA-G expressed on cells (JEG3 …) (assay: flow cytometry on JEG3 cells (natural HLA-G); antibody at 2 µg/ml per legend paragraph 51 (10 µg/ml per paragraph 491); detection with goat anti-human IgG (H+L) Alexa 488).

Q: How did the MFI turn out when B1 was run?
A: 6060

Q: For B3, which MFI is on record?
A: 6330

Q: How did the MFI turn out when B4 was run?
A: 6380
